Reference: article PMC10709064, “The leucine zipper domain of the transcriptional repressor Opi1 underlies a signal transduction mechanism regulating lipid synthesis” (The Journal of Biological Chemistry, 2023)
One block for each binder: values may come before it.

B1: MBP-N-Opi1^WT (maltose-binding protein fused to the N-terminal Opi1^1-190 polypeptide) (domain or fragment, S. cerevisiae, UniProt P21957 1-190, looked up)
chain: MSENQRLGLSEEEVEAAEVLGVLKQSCRQKSQPSEDVSQADKMPASESSTTPLNILDRVSNKIISNVVTFYDEINTNKRPLKSIGRLLDDDDDEHDDYDYNDDEFFTNKRQKLSRAIAKGKDNLKEYKLNMSIESKKRLVTCLHLLKLANKQLSDKISCLQDLVEKEQVHPLHKQDGNARTTTGAGEDET
notes: Opi1, S. cerevisiae, N terminus from aa1 to aa190 (N-Opi1), holds the leucine zipper (aa 139-166); pMAL-c expression vector; also called N-Opi1^1-190; source: for SEC further run on Superdex 200 Increase; not shown: MBP, N-terminal, kept

Legend:
[1] = molecular target: the molecule itself; experiment: SEC; 0.5 mg of affinity-purified MBP fusion on Superdex 200 Increase 10/300 GL, 20 mM Tris-HCl pH 7.4, 150 mM NaCl, 0.5 ml/min; molecular weights estimated from calibration markers
[2] = molecular target: B1; experiment: pull-down; as the pull-down with alternate tags, but binding reactions carried out at decreasing reactant concentrations (relative volume of the binding reaction varied); prey detected by Western blot; conditions: both partners purified
[3] = molecular target: T1, MBP-N-Opi1^3L (L146A, L153S, L160A) (S. cerevisiae, UniProt P21957 1-190, L146A | L153S | L160A); experiment: as above; conditions: both partners purified
T1 construct: Opi1, S. cerevisiae, N terminus from aa1 to aa190 (N-Opi1) with the 3L mutations L146A L153S L160A; pMAL-c expression vector; not shown: MBP, N-terminal, kept
T1 sequence (looked up): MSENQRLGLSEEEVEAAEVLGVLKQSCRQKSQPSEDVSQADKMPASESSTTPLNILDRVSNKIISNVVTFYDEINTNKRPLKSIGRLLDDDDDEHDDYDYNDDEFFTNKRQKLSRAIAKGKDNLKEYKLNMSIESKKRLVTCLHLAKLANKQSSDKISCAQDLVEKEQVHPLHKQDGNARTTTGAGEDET

[4] = molecular target: T2, MBP-N-Opi1^N150D (S. cerevisiae, UniProt P21957 1-190, N150D); experiment: as above; conditions: both partners purified
T2 construct: Opi1, S. cerevisiae, N terminus from aa1 to aa190 (N-Opi1) with N150D; pMAL-c expression vector; amplified from mutant OPI1 DNA template; source: for SEC further run on Superdex 200 Increase; not shown: MBP, N-terminal, kept
T2 sequence (looked up): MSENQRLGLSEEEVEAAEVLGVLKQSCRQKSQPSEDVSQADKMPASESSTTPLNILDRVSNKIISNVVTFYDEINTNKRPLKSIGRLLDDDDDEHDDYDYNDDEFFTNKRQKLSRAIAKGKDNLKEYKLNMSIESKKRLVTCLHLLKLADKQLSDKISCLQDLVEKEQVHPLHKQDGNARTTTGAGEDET

[5] = molecular target: T3, GST-N-Opi1^WT (glutathione-S-transferase fused to Opi1 aa1-190) (S. cerevisiae, UniProt P21957 1-190); experiment: pull-down; around 0.5 ug bait on amylose resin or glutathione-Sepharose with 1.5 ug prey of the alternate tag in 100 ul binding buffer (20 mM Tris-HCl pH 8, 150 mM NaCl, 1 mM EDTA, 1 mM DTT, 20% glycerol, 0.05% Triton X-100) with 50 ug/ml BSA, 2 h at 4 C; bait eluted with its ligand, prey detected by Western blot against MBP or GST; conditions: both partners purified
T3 construct: Opi1, S. cerevisiae, N terminus from aa1 to aa190 (N-Opi1), holds the leucine zipper (aa 139-166); pGEX-4T-1 expression vector; also called N-Opi1^1-190; not shown: GST, N-terminal, kept
T3 sequence (looked up): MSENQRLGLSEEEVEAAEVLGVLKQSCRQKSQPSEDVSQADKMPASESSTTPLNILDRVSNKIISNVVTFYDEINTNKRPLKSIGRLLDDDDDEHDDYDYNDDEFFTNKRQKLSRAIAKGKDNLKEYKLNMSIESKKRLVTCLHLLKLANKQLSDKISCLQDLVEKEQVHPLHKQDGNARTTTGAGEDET

[6] = molecular target: T4, GST-N-Opi1^N150D (S. cerevisiae, UniProt P21957 1-190, N150D); experiment: pull-down; as the pull-down with alternate tags, but binding reactions carried out at decreasing reactant concentrations (relative volume of the binding reaction varied); prey detected by Western blot; conditions: both partners purified
T4 construct: Opi1, S. cerevisiae, N terminus from aa1 to aa190 (N-Opi1) with N150D; pGEX-4T-1 expression vector; not shown: GST, N-terminal, kept
T4 sequence (looked up): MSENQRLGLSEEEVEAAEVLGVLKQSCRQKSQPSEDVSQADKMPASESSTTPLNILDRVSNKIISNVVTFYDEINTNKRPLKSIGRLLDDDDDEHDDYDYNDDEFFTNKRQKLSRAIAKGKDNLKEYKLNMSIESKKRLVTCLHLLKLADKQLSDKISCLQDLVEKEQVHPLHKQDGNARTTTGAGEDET

[7] = molecular target: T5, GST-N-Opi1^3L (L146A, L153S, L160A) (S. cerevisiae, UniProt P21957 1-190, L146A | L153S | L160A); experiment: as above; conditions: both partners purified
T5 construct: Opi1, S. cerevisiae, N terminus from aa1 to aa190 (N-Opi1) with the 3L mutations L146A L153S L160A; pGEX-4T-1 expression vector; not shown: GST, N-terminal, kept
T5 sequence (looked up): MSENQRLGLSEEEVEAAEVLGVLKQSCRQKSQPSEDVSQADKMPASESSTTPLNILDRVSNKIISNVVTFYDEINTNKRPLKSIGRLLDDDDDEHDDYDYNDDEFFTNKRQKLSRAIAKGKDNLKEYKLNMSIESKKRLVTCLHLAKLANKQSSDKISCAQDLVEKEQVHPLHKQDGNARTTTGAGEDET

binding result [2]: binds
B4: GST-C-Opi1^V343E (domain or fragment, S. cerevisiae, UniProt P21957 291-404, looked up)
chain: QQQQQQQQLLQQQLLQQQQQKRNKDGDDSASPSSSVTANGKVLILAKESLEMERNVMGVVDSTLGKAEEWVKQKQEVKEMIRERFLQQQQQYRQQQQKDGNYVKPSQDNVDSKD
notes: Opi1, S. cerevisiae, C terminus from aa291 to aa404 (C-Opi1) with V343E; pGEX-4T-1 expression vector; loss of function mutation known from earlier genetic work; not shown: GST, N-terminal, kept

binding result [5]: binds
binding result [6]: binds
binding result [7]: binds
B5: MBP-C-Opi1^WT (maltose-binding protein fused to Opi1 aa291-404) (domain or fragment, S. cerevisiae, UniProt P21957 291-404, looked up)
chain: QQQQQQQQLLQQQLLQQQQQKRNKDGDDSASPSSSVTANGKVLILAKESLEMVRNVMGVVDSTLGKAEEWVKQKQEVKEMIRERFLQQQQQYRQQQQKDGNYVKPSQDNVDSKD
notes: Opi1, S. cerevisiae, C terminus from aa291 to aa404 (C-Opi1), holds the AID (aa 321-379); pMAL-c expression vector; also called C-Opi1^291-404; Opi1^291-404; not shown: MBP, N-terminal, kept

Continued, binder first:

Binder: B1
stoichiometry N [1]: ~2

B2: GST-C-Opi1^WT (glutathione-S-transferase fused to Opi1 aa291-404) (domain or fragment, S. cerevisiae, UniProt P21957 291-404, looked up)
chain: QQQQQQQQLLQQQLLQQQQQKRNKDGDDSASPSSSVTANGKVLILAKESLEMVRNVMGVVDSTLGKAEEWVKQKQEVKEMIRERFLQQQQQYRQQQQKDGNYVKPSQDNVDSKD
notes: Opi1, S. cerevisiae, C terminus from aa291 to aa404 (C-Opi1), holds the AID (aa 321-379); pGEX-4T-1 expression vector; also called C-Opi1^291-404; Opi1^291-404; not shown: GST, N-terminal, kept
binding result [2]: binds
binding result [3]: binds
binding result [4]: binds

B3: GST-C-Opi1^S339F (domain or fragment, S. cerevisiae, UniProt P21957 291-404, looked up)
chain: QQQQQQQQLLQQQLLQQQQQKRNKDGDDSASPSSSVTANGKVLILAKEFLEMVRNVMGVVDSTLGKAEEWVKQKQEVKEMIRERFLQQQQQYRQQQQKDGNYVKPSQDNVDSKD
notes: Opi1, S. cerevisiae, C terminus from aa291 to aa404 (C-Opi1) with S339F; pGEX-4T-1 expression vector; loss of function mutation known from earlier genetic work; not shown: GST, N-terminal, kept
binding result [2]: binds
